In US20040014638A1 (RIGEL PHARMACEUTICALS, published 2004):
Ends that are not written are not given here.

T1: human CLLD8 protein (human, UniProt Q96T68 1-719, limits assumed)
T1 sequence: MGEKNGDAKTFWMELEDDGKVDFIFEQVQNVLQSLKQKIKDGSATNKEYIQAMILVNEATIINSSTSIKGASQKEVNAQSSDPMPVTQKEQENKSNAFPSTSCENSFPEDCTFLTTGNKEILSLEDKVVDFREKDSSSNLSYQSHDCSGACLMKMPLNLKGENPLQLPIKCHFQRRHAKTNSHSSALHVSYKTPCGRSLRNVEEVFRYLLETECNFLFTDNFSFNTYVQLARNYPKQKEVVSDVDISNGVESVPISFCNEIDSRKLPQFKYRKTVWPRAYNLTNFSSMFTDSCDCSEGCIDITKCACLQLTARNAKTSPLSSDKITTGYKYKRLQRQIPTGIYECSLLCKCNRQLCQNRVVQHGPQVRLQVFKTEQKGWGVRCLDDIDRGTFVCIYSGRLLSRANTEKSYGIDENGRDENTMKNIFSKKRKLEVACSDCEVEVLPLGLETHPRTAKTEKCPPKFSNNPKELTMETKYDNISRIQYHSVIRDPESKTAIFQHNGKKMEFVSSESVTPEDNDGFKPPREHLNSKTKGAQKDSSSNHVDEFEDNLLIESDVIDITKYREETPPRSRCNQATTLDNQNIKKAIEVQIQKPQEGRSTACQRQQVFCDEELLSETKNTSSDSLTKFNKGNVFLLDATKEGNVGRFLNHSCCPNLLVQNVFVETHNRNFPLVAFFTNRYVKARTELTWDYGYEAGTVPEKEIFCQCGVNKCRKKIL

B1: peptide CL02A3 wt (peptide)
peptide: AMHGHHGWPWGMEQGCTPLG
modifications: also: expressed as BFP-peptide fusion via alpha-helical linker, bait in pGBKT7
B2: peptide CL02A3LG (peptide)
peptide: AMHGHHGWPWGMEQGCTPAA
B3: peptide CL02A3GW (peptide)
peptide: AMHGHHAAPWGMEQGCTPLG
B4: peptide CL02A3AM (peptide)
peptide: RAHGHHGWPWGMEQGCTPLG

Experiments:
[1] = target: T1, human CLLD8 protein; assay: cell-based or functional assay
[2] = target: T1, human CLLD8 protein; assay: cell-based or functional assay; remark: listed apart in the source

Binder	reporter ratio (GFP under germline ε promoter, A5T4 reporter line) [1]	endogenous ε inhibition ratio (TAQMAN quantitative PCR of ε transcription product, +IL-4/+Dox to +IL-4/-Dox) [2]	reporter ratio (original clone screen, +IL-4/+Dox over +IL-4/-Dox GFP fluorescence) [2]
B1	1.62	2.82	1.55
B2	1.99	–	–
B3	1.16	–	–
B4	1.03	–	–
